# According to patent US20040019187A1 (published 2004):
# Substitutions are numbered along the chain they refer to.
# T1: HLA-DR (DRA*0101/DRB1*0401) on the surface of PRIESS cells (human, UniProt P01903 26-254; P01911 30-266)
# T1 MHC II alpha: not shown
# T1 MHC II beta: not shown
# B1: MS-GPC-8-27-41 Fab (Fab, V domains shown)
# VH: QVQLKESGPALVKPTQTLTLTCTFSGFSLSTSGVGVGWIRQPPGKALEWLALIDWDDDKYYSTSLKTRLTISKDTSKNQVVLTMTNMDPVDTATYYCARSPRYRGAFDYWGQGTLVTVSS
# VL: DIVLTQPPSVSGAPGQRVTISCSGSESNIGNNYVQWYQQLPGTAPKLLIYDNNQRPSGVPDRFSGSKSGTSASLAITGLQSEDEADYYCQSYDMNVHVFGGGTKLTVLG
# B2: MS-GPC-8-17 Fab (Fab, V domains shown)
# VH: B1 VH
# VL: B1 VL with E26S, N31S, Q35S, M94F, N95S, H97Y
# B3: MS-GPC-8-6-2 Fab (Fab, V domains shown)
# VH: B1 VH
# VL: B1 VL with N31S, Q35H, M94Y, N95D, V96H, H97Y
# How the values were obtained:
# [1] = biological target: T1, HLA-DR (DRA*0101/DRB1*0401) on the …; test: cell-based or functional assay
# [2] = biological target: HLA-DR on the surface of LG-2 cells (human B-lymphoblastoid cell line) (human); test: cell-based or functional assay
binder,measurement,setting,value
B1,EC50 of cell killing (nM) for bivalent agent; PRIESS cells; Fab cross-linked with anti-FLAG M2,[1],7.7 nM
same,EC50 of cell killing (nM) for bivalent agent; LG2 cells; Fab cross-linked with anti-FLAG M2,[2],7.2 nM
B2,EC50 of cell killing (nM) for bivalent agent; PRIESS cells; Fab cross-linked with anti-FLAG M2,[1],16 nM
B3,EC50 of cell killing (nM) for bivalent agent; PRIESS cells; Fab cross-linked with anti-FLAG M2,[1],8 nM
